Values quoted from earlier work as cited in PMC2848813.

Target: Hsp33 (Escherichia coli) (UniProt P0A6Y5)

- Kd: 600 nM
Substance: Hsp33 (from UniProt P0A6Y5)
